Here are results for two substances from patent US20250326823A1.

Assay [1] concerns the target SARS-CoV-2 spike (S) protein, WA1 (SARS-CoV-2) (UniProt P0DTC2). The experiment in a line: cell-based or functional assay.
For assay [2], the target named is SARS-CoV-2 WA1 spike (S) protein (SARS-CoV-2) (UniProt P0DTC2). The experiment in a line: cell-based or functional assay.

ADG20 (antibody): in assay [1], the neutralization IC50 turned out to be 0.047 nM and the neutralization IC80 was 0.197 nM.
AZD3152 (antibody): in assay [1], the IC50, pseudovirus neutralization was found to be 1.08 nM and the IC80, pseudovirus neutralization is 2.2 nM. The same substance had a pseudovirus neutralization IC50 in assay [2] of 0.161 µg/mL.
